T1: human TSLPR on cells (Ba/F3 cells stably overexpressing hTSLPR/hIL7Rα/Stat5-Luc; primary human monocytes) (human, UniProt Q9HC73 23-371)
T1 sequence (looked up): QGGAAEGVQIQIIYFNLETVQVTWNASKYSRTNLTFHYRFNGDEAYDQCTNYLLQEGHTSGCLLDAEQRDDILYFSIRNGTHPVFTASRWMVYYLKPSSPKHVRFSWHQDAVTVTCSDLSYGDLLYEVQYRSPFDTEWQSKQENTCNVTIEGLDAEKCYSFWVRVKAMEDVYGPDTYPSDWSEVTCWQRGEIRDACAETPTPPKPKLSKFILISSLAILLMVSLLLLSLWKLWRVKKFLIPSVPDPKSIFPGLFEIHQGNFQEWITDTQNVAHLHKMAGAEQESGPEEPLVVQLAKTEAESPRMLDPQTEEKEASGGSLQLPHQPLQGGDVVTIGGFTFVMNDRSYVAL


Target: T1, human TSLPR on cells (Ba/F3 cells …)
Experiment: cell-based or functional assay

IC50, luciferase reporter gene assay (Stat5-Luc) | IC50, inhibition of TARC secretion from primary human monocytes | IC50, luciferase reporter gene assay (Stat5-Luc), natural human TSLP | IC50, luciferase reporter gene assay (Stat5-Luc), recombinant human TSLP | Binder
2.7 nM |  |  |  | NV163-1-Fab' (Fab, V domains shown) VH: QVQLVQSGSELKKPGASVKVSCKASGYTFTSYGISWVRQAPGQGLEWMGWVNTNTGNPRYAQGFTGRFVFSLDTSVSTAYLQISSLKAEDTAVYYCAREGFIRTVVGAAGRFVYWGQGTLVTVSS VL: DIQMTQSPSSLSASVGDRVTITCRASQDIHTRLAWYQQKPGKAPKLLIYWASTRGSGVPSRFSGSGSGTDFTLTISSLQPEDFATYYCQQYSAYPTFGQGTKLEIK
 | 0.01 nM | 0.05 nM | 0.126 nM | NV115-3B-IgG1 (antibody, V domains shown) VH: QVQLVQSGAEVKKPGASVKVSCKASGYTFTTYGISWLRQAPGQGLEWMGWVNTNTGNPRYAQGFTGRFVFSLDTSVSTAYLQISSLKAEDTAVYYCAREGFITTVVGAAGRFVYWGQGTLVTVSS VL: DIQMTQSPSSLSASVGDRVTITCRASQDIHTRLAWYQQKPGQPPKLLIYWASTRASGVPDRFSGTGSGTDFTLTISSLQAEDVAVYYCQQYSTYPTFGQGTKLEIK
 | 0.011 nM | 0.04 nM | 0.221 nM | NV164-1-IgG1 (antibody, V domains shown) VH: QVQLVQSGSELKKPGASVKVSCKASGYTFTSYGMSWVRQAPGQGLEWMGWVNTNTGNPRYAQGFTGRFVFSLDTSVSTAYLQISSLKAEDTAVYYCAREGFIRTVVGAAGRFVYWGQGTLVTVSS VL: DIQMTQSPSSLSASVGDRVTITCRASQDIHTRLAWYQQKPGKAPKLLIYWASTLQSGVPSRFSGSGSGTDFTLTISSLQPEDFATYYCQQYSAYPTFGQGTKLEIKG
4 nM |  |  |  | NV164-1-Fab' (Fab, V domains shown) VH: QVQLVQSGSELKKPGASVKVSCKASGYTFTSYGMSWVRQAPGQGLEWMGWVNTNTGNPRYAQGFTGRFVFSLDTSVSTAYLQISSLKAEDTAVYYCAREGFIRTVVGAAGRFVYWGQGTLVTVSS VL: DIQMTQSPSSLSASVGDRVTITCRASQDIHTRLAWYQQKPGKAPKLLIYWASTLQSGVPSRFSGSGSGTDFTLTISSLQPEDFATYYCQQYSAYPTFGQGTKLEIK

Reference: patent US20090074747A1 (IRM, published 2009)
